Consider two substances from paper PMC9134599.

In test [1] the target is human calcitonin receptor, transcript variant 2 (CT(a) subtype), expressed alone (human).
The target of test [2] is human amylin 1 receptor (CTR + RAMP1) (human) (UniProt O60894).
UniProt O60894, sequence (O60894 whole entry, looked up): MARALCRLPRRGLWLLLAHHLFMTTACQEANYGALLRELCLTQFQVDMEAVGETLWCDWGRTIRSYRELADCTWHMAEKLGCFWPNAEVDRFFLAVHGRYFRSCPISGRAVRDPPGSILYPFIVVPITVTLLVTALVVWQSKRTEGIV

human amylin, sequence (P10997 34-70): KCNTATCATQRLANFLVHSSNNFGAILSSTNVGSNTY

Regarding “human α-CGRP (calcitonin gene-related peptide) (from UniProt P06881 83-119)”, in test [1], the inward current (two-electrode voltage clamp, -70 mV), oocytes expressing CTR, CGRP 0.01 to 10 μM; maximum at 10 μM was -1.07 μA and the pEC50 of the CGRP-induced inward current (two-electrode voltage clamp, holding potential -70 mV), oocytes expressing CTR is 5.42 -log M.
On to “human amylin (from UniProt P10997 34-70) (peptide)”, for which, in test [2], the pEC50 of the amylin-induced current (two-electrode voltage clamp, -70 mV), oocytes expressing AMY1-R, amylin 0.01 to 10 μM was 6.33 -log M.
